Here are results for five substances from publication PMC10703496.

The target of this assay is 6×His-tagged receptor-binding domain (RBD) of SARS-CoV-2 spike, B.1.617.2 (Delta) (SARS-CoV-2) (UniProt P0DTC2). Kind of assay: SPR.
“ACE2(18–615)-QMP: monomeric ACE2 peptidase domain (residues 18–615) fused to the N-terminal end of QMP human albumin (from UniProt Q9BYF1-1;P02768)” displayed a Kd of 80.3 nM, a koff of 0.0258 s⁻¹ and a kon of 321000 M⁻¹ s⁻¹.
In turn, “ACE2(18–615)-WT: monomeric ACE2 peptidase domain (residues 18–615) fused to the N-terminal end of fu (from UniProt Q9BYF1-1;P02768)” displayed a Kd of 175 nM, a koff of 0.0083 s⁻¹ and an on-rate (kon) of 47000 M⁻¹ s⁻¹.
Regarding “ACE2(18–740)-QMP: truncated dimeric human ACE2 (residues 18–740) fused to the N-terminal end of engi (from UniProt Q9BYF1-1;P02768)”, the Kd was determined as 2 nM, the koff was 0.00024 s⁻¹ and the kon was 119000 M⁻¹ s⁻¹.
The matching figures for “ACE2(18–740)-WT: truncated dimeric human ACE2 (residues 18–740) fused to the N-terminal end of full- (from UniProt Q9BYF1-1;P02768)”: 1.3 nM, 0.00021 s⁻¹ and 159000 M⁻¹ s⁻¹.
The matching figures for “ACE2-YTY-QMP: dimeric ACE2 with T27Y/L79T/N330Y (YTY) fused to QMP albumin (from UniProt Q9BYF1-1;P02768)”: 0.2 nM, 4e-05 s⁻¹ and 201000 M⁻¹ s⁻¹.
